# Assay results as given in patent US20220363763A1 (ABL BIO, published 2022).
# T1: recombinant his-tag human LAG3-ECD protein (human, UniProt P18627 23-450)
# T1 construct: extracellular domain; not shown: his tag
# T1 sequence (looked up): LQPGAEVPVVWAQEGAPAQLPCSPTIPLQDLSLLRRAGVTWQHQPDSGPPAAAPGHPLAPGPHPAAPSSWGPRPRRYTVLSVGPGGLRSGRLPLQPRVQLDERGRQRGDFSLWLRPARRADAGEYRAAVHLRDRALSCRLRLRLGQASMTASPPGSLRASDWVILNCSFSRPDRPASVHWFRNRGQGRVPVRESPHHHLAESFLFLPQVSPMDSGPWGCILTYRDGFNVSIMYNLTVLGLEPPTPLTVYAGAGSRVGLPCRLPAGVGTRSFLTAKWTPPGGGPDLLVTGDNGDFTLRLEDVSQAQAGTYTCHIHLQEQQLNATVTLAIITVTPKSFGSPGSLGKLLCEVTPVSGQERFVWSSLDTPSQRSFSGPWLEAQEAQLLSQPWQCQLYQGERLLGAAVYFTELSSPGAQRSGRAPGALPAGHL
# T2: human LAG3 (construct not stated) (human, UniProt P18627 23-450, limits assumed)
# T2 construct: also called human LAG3 protein; antigen
# T2 sequence (looked up): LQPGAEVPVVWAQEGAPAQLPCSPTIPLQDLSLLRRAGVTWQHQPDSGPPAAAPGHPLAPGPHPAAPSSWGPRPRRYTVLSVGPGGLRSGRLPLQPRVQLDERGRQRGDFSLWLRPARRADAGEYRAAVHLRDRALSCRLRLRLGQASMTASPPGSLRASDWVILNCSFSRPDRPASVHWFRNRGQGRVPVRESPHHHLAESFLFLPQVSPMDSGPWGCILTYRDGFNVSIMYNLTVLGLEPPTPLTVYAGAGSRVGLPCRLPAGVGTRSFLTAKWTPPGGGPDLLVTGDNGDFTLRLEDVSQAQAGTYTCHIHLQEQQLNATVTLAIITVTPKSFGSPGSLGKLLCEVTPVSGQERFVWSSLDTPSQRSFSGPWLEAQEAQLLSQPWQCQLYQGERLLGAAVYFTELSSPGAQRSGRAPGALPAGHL
# Molecular target: T1, recombinant his-tag human LAG3-ECD …
# Assay: SPR Biacore T200, capture method as Example 2.7
Binder,Kd,koff,kon
"147H 3421 (antibody, V domains shown) VH: EVQLVQSGAEVKKPGASVKVSCKASGYTFTNYWLGWIKQAPGQGLEWIGDIYPGGDYINYNEKFKGKATLTADTSISTAYMELSRLRSDDTAVYYCARPNLPKDHWGQGTTVTVSS VL: DIVMTQSPLSLPVTPGEPASISCRSSKSLLHSNAITYLYWYLQKPGQSPQLLIYQVSNLASGVPDRFSGSGSGTDFTLKISRVEAEDVGVYYCAQNLELPWTFGGGTKVEIK",8.1 nM,0.012 s⁻¹,1.4e+06 M⁻¹ s⁻¹
"147H 3669 (antibody, V domains shown) VH: EVQLVQSGAEVKKPGASVKVSCKASGYLFTNYWLGWIKQAPGQGLEWIGDIYPGGDYIVYNEKFKGKATLTADTSISTAYMELSRLRSDDTAVYYCARPNLPGDYWGQGTTVTVSS VL: DIVMTQSPLSLPVTPGEPASISCRSSKSLLHSNAITYLYWYLQKPGQSPQLLIYQVSNLASGVPDRFSGSGSGTDFTLKISRVEAEDVGVYYCAQNLELPWTFGGGTKVEIK",8.8 nM,0.0063 s⁻¹,720000 M⁻¹ s⁻¹
"147H 3790 (antibody, V domains shown) VH: EVQLVQSGAEVKKPGASVKVSCKASGYTFTNYWLGWIKQAPGQGLEWIGDIYPGGDYINYNEKFKGKATLTADTSISTAYMELSRLRSDDTAVYYCARPNLPKDHWGQGTTVTVSS VL: DIVMTQSPLSLPVTPGEPASISCRSSKSLLHSNAITYLYWYLQKPGQSPQLLIYQVSNLATGVPDRFSGSGSGTDFTLKISRVEAEDVGVYYCAQNLELPWTFGGGTKVEIK",5.9 nM,0.0045 s⁻¹,770000 M⁻¹ s⁻¹
"147H 3663 (antibody, V domains shown) VH: EVQLVQSGAEVKKPGASVKVSCKASGYTFENYWLGWIKQAPGQGLEWIGDIYPGGDYIVYNEKFKGKATLTADTSISTAYMELSRLRSDDTAVYYCARPNLPGDYWGQGTTVTVSS VL: DIVMTQSPLSLPVTPGEPASISCRSSKSLLHSNAITYLYWYLQKPGQSPQLLIYQVSNLARGVPDRFSGSGSGTDFTLKISRVEAEDVGVYYCAQNLELPWTFGGGTKVEIK",6.8 nM,0.0054 s⁻¹,790000 M⁻¹ s⁻¹

# More lines, now with the values ahead:
Kd,koff,kon,Binder
0.59 nM,0.0029 s⁻¹,4.9e+06 M⁻¹ s⁻¹,"147H 3792 (antibody, V domains shown) VH: EVQLVQSGAEVKKPGASVKVSCKASGYTFTNYWLGWIKQAPGQGLEWIGDIYPGGDYIVYNEKFKGKATLTADTSISTAYMELSRLRSDDTAVYYCARPNLPGDYWGQGTTVTVSS VL: DIVMTQSPLSLPVTPGEPASISCRSSKSLLHSNAITYLYWYLQKPGQSPQLLIYQVSNLASGVPDRFSGSGSGTDFTLKISRVEAEDVGVYYCAQYLELPWTFGGGTKVEIK"
0.75 nM,0.0032 s⁻¹,4.3e+06 M⁻¹ s⁻¹,"147H 3808 (antibody, V domains shown) VH: EVQLVQSGAEVKKPGASVKVSCKASGYTFTNYWLGWIKQAPGQGLEWIGDIYPGGDYIVYNEKFKGKATLTADTSISTAYMELSRLRSDDTAVYYCARPNLPKDHWGQGTTVTVSS VL: DIVMTQSPLSLPVTPGEPASISCRSSKSLLHSNAITYLYWYLQKPGQSPQLLIYQVSNLASGVPDRFSGSGSGTDFTLKISRVEAEDVGVYYCGQYLELPWTFGGGTKVEIK"
1.2 nM,0.0025 s⁻¹,2.1e+06 M⁻¹ s⁻¹,"147H 3791 (antibody, V domains shown) VH: EVQLVQSGAEVKKPGASVKVSCKASGYTFTNYWLGWIKQAPGQGLEWIGDIYPGGDYIVYNEKFKGKATLTADTSISTAYMELSRLRSDDTAVYYCARPNLPGDYWGQGTTVTVSS VL: DIVMTQSPLSLPVTPGEPASISCRSSKSLLHSNAITYLYWYLQKPGQSPQLLIYQVSNLASGVPDRFSGSGSGTDFTLKISRVEAEDVGVYYCGQNLELPWTFGGGTKVEIK"
0.47 nM,0.002 s⁻¹,4.3e+06 M⁻¹ s⁻¹,"147H 3809 (antibody, V domains shown) VH: EVQLVQSGAEVKKPGASVKVSCKASGYLFTNYWLGWIKQAPGQGLEWIGDIYPGGDYIVYNEKFKGKATLTADTSISTAYMELSRLRSDDTAVYYCARPNLPKDHWGQGTTVTVSS VL: DIVMTQSPLSLPVTPGEPASISCRSSKSLLHSNAITYLYWYLQKPGQSPQLLIYQVSNLASGVPDRFSGSGSGTDFTLKISRVEAEDVGVYYCAQYLELPWTFGGGTKVEIK"
1.3 nM,0.0023 s⁻¹,1.8e+06 M⁻¹ s⁻¹,"147H 3793 (antibody, V domains shown) VH: EVQLVQSGAEVKKPGASVKVSCKASGYLFTNYWLGWIKQAPGQGLEWIGDIYPGGDYIVYNEKFKGKATLTADTSISTAYMELSRLRSDDTAVYYCARPNLPGDYWGQGTTVTVSS VL: DIVMTQSPLSLPVTPGEPASISCRSSKSLLHSNAITYLYWYLQKPGQSPQLLIYQVSNLASGVPDRFSGSGSGTDFTLKISRVEAEDVGVYYCGQNLELPWTFGGGTKVEIK"
0.72 nM,0.0027 s⁻¹,3.7e+06 M⁻¹ s⁻¹,"147H 3794 (antibody, V domains shown) VH: EVQLVQSGAEVKKPGASVKVSCKASGYLFTNYWLGWIKQAPGQGLEWIGDIYPGGDYIVYNEKFKGKATLTADTSISTAYMELSRLRSDDTAVYYCARPNLPGDYWGQGTTVTVSS VL: DIVMTQSPLSLPVTPGEPASISCRSSKSLLHSNAITYLYWYLQKPGQSPQLLIYQVSNLASGVPDRFSGSGSGTDFTLKISRVEAEDVGVYYCAQYLELPWTFGGGTKVEIK"
0.92 nM,0.0068 s⁻¹,7.4e+06 M⁻¹ s⁻¹,"147H 3549 (antibody, V domains shown) VH: EVQLVQSGAEVKKPGASVKVSCKASGYTFTNYWLGWIKQAPGQGLEWIGDIYPGGDYINYNEKFKGKATLTADTSISTAYMELSRLRSDDTAVYYCARPNLPKDHWGQGTTVTVSS VL: DIVMTQSPLSLPVTPGEPASISCRSSKSLLHSNAITYLYWYLQKPGQSPQLLIYQVSNLASGVPDRFSGSGSGTDFTLKISRVEAEDVGVYYCAQYLEEPWTFGGGTKVEIK"
0.98 nM,0.0085 s⁻¹,8.7e+06 M⁻¹ s⁻¹,"147H 3550 (antibody, V domains shown) VH: EVQLVQSGAEVKKPGASVKVSCKASGYTFTNYWLGWIKQAPGQGLEWIGDIYPGGDYINYNEKFKGKATLTADTSISTAYMELSRLRSDDTAVYYCARPNLPKDHWGQGTTVTVSS VL: DIVMTQSPLSLPVTPGEPASISCRSSKSLLHSNAITYLYWYLQKPGQSPQLLIYQVSNLASGVPDRFSGSGSGTDFTLKISRVEAEDVGVYYCAQYLELPWTFGGGTKVEIK"
0.59 nM,0.0029 s⁻¹,4.9e+06 M⁻¹ s⁻¹,"147H 3811 (antibody, V domains shown) VH: EVQLVQSGAEVKKPGASVKVSCKASGYLFTNYWLGWIKQAPGQGLEWIGDIYPGGDYIVYNEKFKGKATLTADTSISTAYMELSRLRSDDTAVYYCARPNLPKDHWGQGTTVTVSS VL: DIVMTQSPLSLPVTPGEPASISCRSSKSLLHSNAITYLYWYLQKPGQSPQLLIYQVSNLATGVPDRFSGSGSGTDFTLKISRVEAEDVGVYYCGQYLELPWTFGGGTKVEIK"
1.4 nM,0.0042 s⁻¹,2.9e+06 M⁻¹ s⁻¹,"147H 3508 (antibody, V domains shown) VH: EVQLVQSGAEVKKPGASVKVSCKASGYTFTNYWLGWIKQAPGQGLEWIGDIYPGGDYINYNEKFKGKATLTADTSISTAYMELSRLRSDDTAVYYCARPNLPKDHWGQGTTVTVSS VL: DIVMTQSPLSLPVTPGEPASISCRSSKSLLHSNAITYLYWYLQKPGQSPQLLIYQVSNLASGVPDRFSGSGSGTDFTLKISRVEAEDVGVYYCGQNLELPWTFGGGTKVEIK"

# Molecular target: T2, human LAG3 (construct not stated)
# Assay: BLI Octet Red 96, affinity ranking
Kd,koff,kon,Binder
42.2 nM,0.00451 s⁻¹,107000 M⁻¹ s⁻¹,"147H-11 (antibody, V domains shown, Common light chain; human gamma 1 / kappa constant domains) VH: EVQLVQSGAEVKKPGASVKVSCKASGYTFTNYWLGWVRQAPGQGLEWMGDIYPGGDYINYNEKFKGKATLTADTSISTAYMELSRLRSDDTAVYYCARPNLPGDYWGQGTTVTVSS VL: DIVMTQSPLSLPVTPGEPASISCRSSKSLLHSNGITYLYWYLQKPGQSPQLLIYQVSNLASGVPDRFSGSGSGTDFTLKISRVEAEDVGVYYCAQNLELPWTFGGGTKVEIK"
35.4 nM,0.00386 s⁻¹,109000 M⁻¹ s⁻¹,"147H-1 (antibody, V domains shown) VH: QVQLVQSGAEVKKPGASVKVSCKASGYTFTNYWLGWVRQAPGQGLEWMGDIYPGGDYINYNEKFKGRVTMTRDTSISTAYMELSRLRSDDTAVYYCARPNLPGDYWGQGTTVTVSS VL: DIVMTQSPLSLPVTPGEPASISCRSSKSLLHSNGITYLYWYLQKPGQSPQLLIYQVSNLASGVPDRFSGSGSGTDFTLKISRVEAEDVGVYYCAQNLELPWTFGGGTKVEIK"
31.6 nM,0.00314 s⁻¹,99300 M⁻¹ s⁻¹,"147H-2 (antibody, V domains shown, Common light chain; human gamma 1 / kappa constant domains) VH: QVQLVQSGAEVKKPGASVKVSCKASGYTFTNYWLGWVRQAPGQGLEWMGDIYPGGDYINYNEKFKGRVTMTADTSISTAYMELSRLRSDDTAVYYCARPNLPGDYWGQGTTVTVSS VL: DIVMTQSPLSLPVTPGEPASISCRSSKSLLHSNGITYLYWYLQKPGQSPQLLIYQVSNLASGVPDRFSGSGSGTDFTLKISRVEAEDVGVYYCAQNLELPWTFGGGTKVEIK"
36.5 nM,0.00338 s⁻¹,92500 M⁻¹ s⁻¹,"147H-3 (antibody, V domains shown, Common light chain; human gamma 1 / kappa constant domains) VH: QVQLVQSGAEVKKPGASVKVSCKASGYTFTNYWLGWVRQAPGQGLEWMGDIYPGGDYINYNEKFKGRVTLTADTSISTAYMELSRLRSDDTAVYYCARPNLPGDYWGQGTTVTVSS VL: DIVMTQSPLSLPVTPGEPASISCRSSKSLLHSNGITYLYWYLQKPGQSPQLLIYQVSNLASGVPDRFSGSGSGTDFTLKISRVEAEDVGVYYCAQNLELPWTFGGGTKVEIK"
